# Where a chain is given by its changes, count along the chain named.
# B1: chimeric ML66-SMCC-DM1 (antibody, V domains shown)
# VH: QVQLKESGPGLVQPSQTLSLTCTVSGLSLASNSVSWIRQPPGKGLEWMGVIWNHGGTDYNSVIKSRLSISRDTSKSQVFLKMNSLQTEDTAMYFCVRKGGIYFDYWGQGVMVTVSS
# VL: DTVLTQSPALAVSPGERVTISCRASESVSTLMHWYQQKSGQQPKLLIYLASHRESGVPARFSGSGSGTDFTLTIDPMEADDTATYYCQQSRNDPWTFGGGTNLELK
# modifications: Maytansinoid DM1 is linked to the antibody through the non-cleavable SMCC linker. The attachment sites and drug load for chML66 are not stated, and the letters cannot carry them.
# B2: muEGFR-8-SMCC-DM1 conjugate (antibody, V domains shown)
# VH: EVQLQQSGAELVKPGASVKLSCTTSGFNIKDTYIHWVKKRPEQGLEWIGRIDPTNGNNKYDPKFQGKATITADTSSNTAYLQLSSLTSEDTAVYYCTREDGYRYDDWYFDVWGAGTTVTVSS
# VL: QIVLTQSPASMSASPGEKVTMTCSASSSVSYMHWYQQKSGTSPKRWIYATSKLASGVPARFSGSGSGTSYSLTISSMEAEDAATYYCQQWSSNPLTFGAGTKLELKR
# modifications: DM1 linked through SMCC to the antibody; drug load and sites not stated
# notes: Maytansinoid conjugate of the whole murine EGFR-8 antibody; its preparation is not described separately
# B3: humanized ML66 (huML66) antibody (antibody, human IgG1, kappa, V domains shown)
# VH: B1 VH with K5Q, Q13K, Q16E, S61P, V62S, Q86T, T87A, E88A, M111L
# VL: DTVLTQSPSLAVSPGERATISCRASESVSTLMHWYQQKPGQQPKLLIYLASHRESGVPARFSGSGSGTDFTLTIDPMEAEDTATYYCQQSRNDPWTFGQGTKLELKR
# B4: rat ML66 antibody (antibody, V domains shown)
# VH: B1 VH
# VL: B3 VL with S9A, A18V, P39S, E80D, Q99G, K102N
# notes: Rat monoclonal antibody purified from hybridoma
# B5: huML66-SMCC-DM1 conjugate (antibody, human IgG1, kappa, V domains shown)
# VH: B1 VH with K5Q, Q13K, Q16E, S61P, V62S, Q86T, T87A, E88A, M111L
# VL: B3 VL
# modifications: DM1 linked through SMCC; sites not stated; DM1 linked through SMCC; 3.5-4 DM1 molecules per antibody; sites not stated
# B6: huML66-SPDB-DM4 conjugate (antibody, human IgG1, kappa, V domains shown)
# VH: B1 VH with K5Q, Q13K, Q16E, S61P, V62S, Q86T, T87A, E88A, M111L
# VL: B3 VL
# modifications: DM4 linked through SPDB; sites not stated; DM4 linked through SPDB; 3.5-4 DM4 molecules per antibody; sites not stated
# B7: murine EGFR-8 antibody (antibody, V domains shown)
# VH: B2 VH
# VL: B2 VL
# notes: Mouse monoclonal antibody purified from hybridoma; also called muEGFR-8
# Assays:
# [1] = target: human EGFR (epidermal growth factor receptor) (human) (UniProt P00533); assay: flow cytometry, binding curve of the biotinylated ligand on MDA-MB468 cells
# [2] = target: T1, human EGFR (epidermal growth factor receptor) (human, UniProt P00533 25-1210); assay: cell-based or functional assay
# [3] = target: T1, human EGFR (epidermal growth factor …); assay: flow cytometry on MDA-MB468 or A431 cells; EC50 of the curve taken as apparent Kd
# [4] = target: T1, human EGFR (epidermal growth factor …); assay: flow cytometry on MDA-MB468 cells, apparent Kd from non-linear regression of geo mean fluorescence against [Ab] (M)
# [5] = target: T1, human EGFR (epidermal growth factor …); assay: flow cytometry on MDA-MB468 cells
molecule,measurement,setting,value
biotinylated EGF (Invitrogen) (ligand),EC50,[1],1.8 nM
B1,EC50 of cytotoxicity on KB cells with 1 µM naked chML66 antibody blocking,[2],30 nM
same,EC50 of cytotoxicity on KB cells without blocking antibody,[2],3 nM
B2,Kd,[3],4.54 nM
same,EC50 of in vitro cytotoxicity on NCI-H226 cells (WST-8),[2],0.68 nM
same,EC50 of in vitro cytotoxicity on NCI-H292 cells (WST-8),[2],0.43 nM
same,EC50 of in vitro cytotoxicity on NCI-H322M cells (WST-8),[2],3.07 nM
B3,Kd,[4],1.23 nM
same,Kd,[3],1.12 nM
same,EC50 (read off the curve),[5],~1 nM
B4,Kd,[4],1.94 nM
same,EC50 (read off the curve),[5],~2 nM
B5,Kd,[3],2.33 nM
B6,Kd,[3],2.93 nM
B7,Kd,[3],1.43 nM

# From patent US20160017053A1 (IMMUNOGEN, published 2016)
